US20140303084
Where a chain is given by its changes, count along the chain named.

Experiments:
[1] = system: T1, CGGG-RRAPGKLT-Asp-LASY-Lys-WLFWTGIA
T1 sequence: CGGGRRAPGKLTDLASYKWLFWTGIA

KLTCLASYCWL-MePhe = system: T2, KLTCLASYCWL-MePhe
T2 sequence: KLTCLASYCWLF

RRAPGKLTCLASyCWLFWTGIA = system: T3, RRAPGKLTCLASyCWLFWTGIA
T3 sequence: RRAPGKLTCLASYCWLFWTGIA

[2] = system: T4, RRAPGKLTCLASYCWLF WTGWA VLARVPVGWT
T4 sequence: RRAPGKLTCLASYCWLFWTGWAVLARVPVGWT

QQRQIKMSCLASYCWLFGSIPW = system: T5, QQRQIKMSCLASYCWLFGSIPW
T5 sequence: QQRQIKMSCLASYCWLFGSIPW

[3] = system: T6, RRAPGKLQCLASYCWLFWTG-Tle-A
T6 sequence: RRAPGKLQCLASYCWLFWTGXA

KLTCLASYCWLf = system: T7, KLTCLASYCWLf
T7 sequence: KLTCLASYCWLF

Dpr-LTCLASYCWLF = system: T8, Dpr-LTCLASYCWLF
T8 sequence: XLTCLASYCWLF

RRAPGKLQCLASYCWLFWTGAA = system: T9, RRAPGKLQCLASYCWLFWTGAA
T9 sequence: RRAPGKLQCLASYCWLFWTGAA

[4] = system: T10, RRAPGKLT-Lys-LASY-Asp-WLFWTGIA-CONH2
T10 sequence: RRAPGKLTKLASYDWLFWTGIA

NGGMQKPACLASQCWLFANPLP = system: T11, NGGMQKPACLASQCWLFANPLP
T11 sequence: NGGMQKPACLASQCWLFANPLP

[5] = system: T12, AIGTWFLWCYSALCTLKGPARR (retro)
T12 sequence: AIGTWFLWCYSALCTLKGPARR

RRAPGKLQCLASYCWLFKTGIA = system: T13, RRAPGKLQCLASYCWLFKTGIA
T13 sequence: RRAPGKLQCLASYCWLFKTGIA

[6] = system: T14, SKQGRPISSDrRAAGKSTCLASYCWLFWTGIA
T14 sequence: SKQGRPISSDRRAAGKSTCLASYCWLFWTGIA

KLT-Glu-LASY-Lys-WLF = system: T15, KLT-Glu-LASY-Lys-WLF
T15 sequence: KLTELASYKWLF

[7] = system: T16, RRAPGKLTCLASYCWLF VTGTA HAPRVAPAPA
T16 sequence: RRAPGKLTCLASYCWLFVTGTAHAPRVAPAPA

[8] = system: T17, MQIRQAHQPR RSAPQ KLTCLASYCWLFWTGIA
T17 sequence: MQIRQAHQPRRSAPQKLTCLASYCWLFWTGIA

KITCLASYCWLF = system: T18, KITCLASYCWLF
T18 sequence: KLTCLASYCWLF

Ac-K-k-MeLeu-TCLASYCWLF = system: T19, Ac-K-k-MeLeu-TCLASYCWLF
T19 sequence: KKLTCLASYCWLF

KLTALASYCWLF = system: T20, KLTALASYCWLF
T20 sequence: KLTALASYCWLF

[9] = system: T21, SKQGRPISSDrRASGKSTCLASYCWLFWTGIA
T21 sequence: T14 sequence with A14S

RRAPGKLQCLASYCWLFWTAIA = system: T22, RRAPGKLQCLASYCWLFWTAIA
T22 sequence: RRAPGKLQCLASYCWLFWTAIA

[10] = system: T23, SRIRTVSPGSRSASGKSTCLASYCWLFWTGIA
T23 sequence: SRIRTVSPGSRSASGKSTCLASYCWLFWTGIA

[11] = system: T24, C(Acm)GGGGfpipR-PEG5-rRAPGKLTCLASYCWLFWTGIA
T24 sequence: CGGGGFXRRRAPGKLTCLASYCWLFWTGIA

[12] = system: T25, PRIrTVGPGSrSASGKSTCLASYCWLFWTGIA-PEG4-Pra
T25 sequence: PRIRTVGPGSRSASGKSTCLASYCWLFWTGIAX

compound 18 = system: T26, compound 18
T26 sequence: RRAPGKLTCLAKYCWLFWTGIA

[13] = system: T27, RRAPGKCTALASYCWLFWTGIA-COOH
T27 sequence: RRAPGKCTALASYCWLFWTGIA

[14] = system: T28, RRAPGKLTCLASYCWLF WSGIA PQPPNMRPSV
T28 sequence: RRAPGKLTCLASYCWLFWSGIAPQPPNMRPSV

rRAAGKLTCLASACWLFATGIA = system: T29, rRAAGKLTCLASACWLFATGIA
T29 sequence: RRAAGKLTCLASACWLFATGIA

[15] = system: T30, RRAPGKLTCLASYACLFWTGIA-COOH
T30 sequence: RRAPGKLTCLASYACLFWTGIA

[16] = system: T31, SAQGRPISPDrRAAGKLTCLASYCWLFWTGIA
T31 sequence: T14 sequence with K2A, S9P, S17L

[17] = system: T32, PRIRTVSPGSRSASGKLTCLASYCWLFWTGIA
T32 sequence: T23 sequence with S1P, S17L

RLTCLASYCWLF = system: T33, RLTCLASYCWLF
T33 sequence: RLTCLASYCWLF

[18] = system: T34, CNPRGD-Tyr(OEt)-RC-PEG16-Lys(PEG2-Biotin)-PEG16-rRAPGKLTCLASYCWLFWTGIA
T34 sequence: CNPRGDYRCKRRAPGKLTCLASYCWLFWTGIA

[19] = system: T35, RRAPGKLT-Asp-LASY-Lys-WLFWTGIA-COOH
T35 sequence: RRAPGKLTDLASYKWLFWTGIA

KLKCLASYCWLF = system: T36, KLKCLASYCWLF
T36 sequence: KLKCLASYCWLF

[20] = system: T37, SKQGRPISPDrRAAGKLTCLASYCWLF
T37 sequence: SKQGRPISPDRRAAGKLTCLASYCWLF

[21] = system: T38, TALSRGLVTM RTAPD KLTCLASYCWLFWTGIA
T38 sequence: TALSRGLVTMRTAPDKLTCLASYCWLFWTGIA

KLTCLA-HSe-YCWLF = system: T39, KLTCLA-HSe-YCWLF
T39 sequence: KLTCLAXYCWLF

[22] = system: T40, RRAPGKLTCLASYCWLF LTGWA RVPLPPRPHP
T40 sequence: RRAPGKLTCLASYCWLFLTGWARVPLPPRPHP

RRAPGKLQCLASYCWLFWTGI = system: T41, RRAPGKLQCLASYCWLFWTGI
T41 sequence: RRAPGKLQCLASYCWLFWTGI

KLT-Lys-LASY-Glu-WLF = system: T42, KLT-Lys-LASY-Glu-WLF
T42 sequence: KLTKLASYEWLF

[23] = system: T43, PRIRTVGPGSRSASGKLTCFASYCWLFWTGIA
T43 sequence: T23 sequence with S1P, S7G, S17L, L20F

[24] = system: T44, SKQGRPISPDrRAAGKLTCLASYCWLFWTGI
T44 sequence: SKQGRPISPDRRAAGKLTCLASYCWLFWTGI

[25] = system: T45, RRAPGKLT-Dap-LASY-Asp-WLFWTGIA-COOH
T45 sequence: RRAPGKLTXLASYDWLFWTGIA

KGAYQKLTCLASYCLLFLLTAQ = system: T46, KGAYQKLTCLASYCLLFLLTAQ
T46 sequence: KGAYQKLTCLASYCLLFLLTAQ

[26] = system: T47, RRAPGKLTCLASYCWLF WTAVG GQPYMLLAWR
T47 sequence: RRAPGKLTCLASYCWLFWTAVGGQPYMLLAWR

In the case of human Factor IXa, the Vmax, FXa generation assay [1] is reported as greater than 2, the “Vmax, FXa generation assay; (++) means 1-2” value (shortened to “Vmax … (++) means 1-2”) (KLTCLASYCWL-MePhe) is reported as “(++)” and the Vmax, FXa generation assay (RRAPGKLTCLASyCWLFWTGIA) is reported as greater than 2. The Vmax, FXa generation assay [2] was greater than 2, the “Vmax … (++) means 1-2” value (QQRQIKMSCLASYCWLFGSIPW) was “(++)” and the Vmax, FXa generation assay [3] was greater than 2. It also gave a Vmax, FXa generation assay (KLTCLASYCWLf) greater than 3, a Vmax, FXa generation assay (Dpr-LTCLASYCWLF) greater than 2 and a Vmax, FXa generation assay (RRAPGKLQCLASYCWLFWTGAA) greater than 3. For the same substance, the “Vmax … (++) means 1-2” value [4] was “(++)”, the “Vmax … (++) means 1-2” value (NGGMQKPACLASQCWLFANPLP) was “(++)” and the “Vmax … (++) means 1-2” value [5] was “(++)”. For the same substance, the Vmax, FXa generation assay (RRAPGKLQCLASYCWLFKTGIA) was greater than 0.2, the Vmax, FXa generation assay [6] was greater than 3 and the “Vmax … (++) means 1-2” value (KLT-Glu-LASY-Lys-WLF) was “(++)”. The Vmax, FXa generation assay [7] was greater than 3, the Vmax, FXa generation assay [8] was greater than 2 and the Vmax, FXa generation assay (KITCLASYCWLF) was greater than 2. The Vmax, FXa generation assay (Ac-K-k-MeLeu-TCLASYCWLF) was greater than 2, the “Vmax … (++) means 1-2” value (KLTALASYCWLF) was “(++)” and the Vmax, FXa generation assay [9] was greater than 3. For the same substance, the Vmax, FXa generation assay (RRAPGKLQCLASYCWLFWTAIA) was greater than 2, the Vmax, FXa generation assay [10] was greater than 3 and the Vmax, FXa generation assay [11] was greater than 3. The Vmax, FXa generation assay [12] was greater than 3, the Vmax, FXa generation assay with hFIXa (compound 18) was greater than 2 and the “Vmax … (++) means 1-2” value [13] was “(++)”. For the same substance, the Vmax, FXa generation assay [14] was greater than 3, the “Vmax … (++) means 1-2” value (rRAAGKLTCLASACWLFATGIA) was “(++)” and the Vmax, FXa generation assay [15] was greater than 2. It also gave a Vmax, FXa generation assay [16] greater than 2, a Vmax, FXa generation assay [17] greater than 3 and a Vmax, FXa generation assay (RLTCLASYCWLF) greater than 2. The Vmax, FXa generation assay [18] was greater than 3, the “Vmax … (++) means 1-2” value [19] was “(++)” and the Vmax, FXa generation assay (KLKCLASYCWLF) was greater than 3. The Vmax, FXa generation assay [20] was greater than 3, the “Vmax … (++) means 1-2” value [21] was “(++)” and the “Vmax … (++) means 1-2” value (KLTCLA-HSe-YCWLF) was “(++)”. The “Vmax … (++) means 1-2” value [22] was “(++)”, the Vmax, FXa generation assay (RRAPGKLQCLASYCWLFWTGI) was greater than 2 and the “Vmax … (++) means 1-2” value (KLT-Lys-LASY-Glu-WLF) was “(++)”. It also gave a Vmax, FXa generation assay [23] greater than 2, a Vmax, FXa generation assay [24] greater than 3 and a Vmax, FXa generation assay [25] greater than 0.8. For the same substance, the “Vmax … (++) means 1-2” value (KGAYQKLTCLASYCLLFLLTAQ) was “(++)” and the “Vmax … (++) means 1-2” value [26] was “(++)”.
